Measurements: patent US11884743B2, “Preparation and application of an intact recombinant antibody specific to clothianidin based on the identified variable region sequence” (Zhejiang University, priority 2020, dated 2024)

Legend:
[1] = heterologous competitive indirect ELISA (coating antigen imidaclothiz-OVA); format: binding
Source text: In the early preparation stage of parental ascitic monoclonal antibodies, the assay sensitivity difference was compared between the homologous competitive indirect ELISA (coating antigen was clothianidin-OVA) and the heterologous competitive indirect ELISA (coating antigen was imidaclothiz-OVA). […] Therefore, in the present disclosure, the heterologous competitive indirect ELISA was used to evaluate the sensitivity and specificity of the intact recombinant antibody against clothianidin. A 96-well plate was coated with imidaclothiz-OVA as the heterologous competitive antigen; subsequently, ELISA was performed using a rabbit anti-mouse IgG-HRP as a detection antibody, tetramethylbenzidine (TMB) as a reaction substrate, and clothianidin and other neonicotinoid pesticide standards as analytes.

[2] = antibody binding kinetics by surface plasmon resonance (SPR); settings: CM7 chip, antibody coupled at pH 5.0, clothianidin 0.78-50 nM
Procedure: The CM7 chip was used in this invention, and the optimal pH for both antibodies was 5.0. The final signal values of the antibodies coupled on the chip were 38663 RU and 39854 RU, respectively. Kinetic experiments were performed to determine the affinity of both the parental ascitic monoclonal antibody and the intact recombinant antibody to clothianidin at a range of analyte concentrations ([…], and 0.78 nM).

B1: intact recombinant antibody against clothianidin: Recombinant mouse IgG1/kappa antibody, VH SEQ ID NO: 2, VL SEQ ID NO: 4, expressed in HEK293F cells (antibody, listed as Mus musculus, V domains shown)
VH: EVQLQQSGPELVKPGASVKMSCKASGYTFTNYVMHWVKQKPGQGLEWIGFFYPYIDYTKYNEMFKGKATLTSDTSSSTAYMELSGLTSEDSAVYFCARSQFFYRYDYFDYWGQGTALTVSS
VL: DVLMTQTPLSLPVSLGDQASISCRSSQNIVHSNGNTYLEWYLQKPGQSPKVLIYKVSNRFSGVPDRFSGSGSGTDFTLKINRVEAEDLGIYYCFQGSHVPFTFGSGTKLEIK
[1]
  Sensitivity (IC50): 4.62 ng/mL
  detection range for ELISA (IC20-IC80): 0.92 to 23.04 ng/mL
[2]
  Kd: 3.24 nM
